{
  "source": "patent US20050260683A1",
  "about": "“Methods for diagnosing and treating pre-term labor” (University of Hawaii, priority 2002, published 2005)",
  "molecules": {"B1": {"name": "rhPBEF: recombinant human pre-B cell colony-enhancing factor produced in a bacterial system using pTrcHis2 vector (protein)", "chain": "MNPAAEAEFNILLATDSYKVTHYKQYPPNTSKVYSYFECREKKTENSKLRKVKYEETVFYGLQYILNKYLKGKVVTKEKIQEAKDVYKEHFQDDVFNEKGWNYILEKYDGHLPIEIKAVPEGFVIPRGNVLFTVENTDPECYWLTNWIETILVQSWYPITVATNSREQKKILAKYLLETSGNLDGLEYKLHDFGYRGVSSQETAGIGASAHLVNFKGTDTVAGLALIKKYYGTKDPVPGYSVPAAEHSTITAWGKDHEKDAFEHIVTQFSSVPVSVVSDSYDIYNACEKIWGEDLRHLIVSRSTQAPLIIRPDSGNPLDTVLKVLEILGKKFPVTENSKGYKLLPPYLRVIQGDGVDINTLQEIVEGMKQKMWSIENIAFGSGGGLLQKLTRDLLNCSFKCSYVVTNGLGINVFKDPVADPNKRSKKGRLSLHRTPAGNFVTLEEGKGDLEEYGQDLLHTVFKNGKVTKSYSFDEIRKNAQLNIELEAAHH"}},
  "type_in_all_cases": "cell-based, human",
  "key": {"[1]": {"tested_on": "key mediators of labor in fetal membrane explants", "test": "rhPBEF treatment of fetal membrane explants, gene chip analysis (Affymetrix)", "conditions": "rhPBEF 100 ng/ml, 4 hours", "method": "Fetal membranes from three patients were cut into several 3×3 cm explants. One explant was used to check for infection. Another explant was treated with 100 ng/ml rhPBEF in minimal media for 4 hours, an adjacent explant was used as a control and was incubated in minimal media only for the same period. At the end of this time, total RNA was extracted using the RNeasy Maxi kit (Qiagen Inc., Valencia, Calif.). These RNAs were run in pairs (explants treated and controls from each of the patients), were reverse-transcribed and the resulting cDNAs/cRNAs labeled with tracking fluorescent dyes and hybridized to DNA microchips (Affymetrix Inc.) containing 22,000 gene transcripts. The binding of the fluorescent fragments was proportional to the abundance of the gene in the original samples. Therefore changes in gene expression result in signal differences. […] The Affymetrix system has numerous controls built into the methodology in order to minimize false positive results."}, "[2]": {"tested_on": "IL-8 gene expression in amniotic epithelial (WISH) cells", "test": "rhPBEF treatment of WISH cells, IL-8 gene expression by Northern analysis", "conditions": "rhPBEF 100 ng/ml, 4 h", "method": "Total RNA was extracted (see Chomzynski and Sacchi, supra) and MRNA prepared as previously described (see Aviv and Leder, supra). Samples of MRNA (10-20 μg) were electrophoresed, and the RNA transferred to a nylon membrane (Magna Graph, MSI, Westborough, Mass.) as previously described (see Ognjanovic et al., supra). The cDNA probes were labeled using the Random Primed DNA labeling kit and following the manufacturer's instructions (Invitrogen, Carlsbad, Calif.). The filters were hybridized at 68° C. for 1 h using Express Hyb solution (Clontech, Palo Alto, Calif., USA). A final wash stringency of 0.1×SSC, 0.1% SDS was performed at 50° C. Filters were deprobed in 0.5% SDS for 10 min at 100° C. and re-hybridized sequentially with cDNA probes to PBEF, IL-6 and IL-8 and finally with a human glyceraldehyde-3 phosphate dehydrogenase (G3PDH) cDNA probe (Clontech), as an internal standard. The Northern blot was quantitated with a Phospholmager (Amersham Pharmacia Biotech, Piscataway, N.Y.), using the G3PDH value for each sample to standardize sample loading. Results were expressed as a ratio to G3PDH. […]\nThe amnion-like epithelial (WISH) cells were obtained from American Type Culture Collection (ATCC# CCL-25) (ATCC, Manassas, Va.). […] The concentration of rhPBEF was determined using the BioRad protein assay and 1, 10 and 100 ng/ml was added to the cells for 4 and 24 h. […]"}, "[3]": {"tested_on": "IL-6 gene expression in fetal membrane explants", "test": "rhPBEF treatment of fetal membrane explants, IL-6 gene expression by Northern analysis", "conditions": "rhPBEF 100 ng/ml, 4 h, vs control", "description": "(§1) elective term Cesarean section without labor (n=7). For the Northern analysis of IL-6 and IL-8 gene expression after rhPBEF treatment, fetal membranes from elective term Cesarean sections before labor (37-40 weeks gestation, n=6) were collected and cut into 3×3 cm explants. None of the preterm or term patients or tissues had any clinical or histological signs of chorioamnionitis. The placentas and membranes were examined by a pathologist for histological evidence of infection using the criteria of Naeye (see Naeye R I. “Disorders of the placenta, fetus and neonate: diagnosis and clinical significance.” St Louis: C U Mosby; 1992. p.258) and all tissues with any sign of infection were excluded from this study.\nTotal RNA was extracted (see Chomzynski and Sacchi, supra) and MRNA prepared as previously described (see Aviv and Leder, supra). Samples of MRNA (10-20 μg) were electrophoresed, and the RNA transferred to a nylon membrane (Magna Graph, MSI, Westborough, Mass.) as previously described (see Ognjanovic et al., supra). The cDNA probes were labeled using the Random Primed DNA labeling kit and following the manufacturer's instructions (Invitrogen, Carlsbad, Calif.). […] The Northern blot was quantitated with a Phospholmager (Amersham Pharmacia Biotech, Piscataway, N.Y.), using the G3PDH value for each sample to standardize sample loading. Results were expressed as a ratio to G3PDH. […]"}, "[4]": {"tested_on": "IL-6 gene expression in amniotic epithelial (WISH) cells", "test": "rhPBEF treatment of WISH cells, IL-6 gene expression by Northern analysis", "conditions": "for increase in IL-6 gene expression: 4 h, vs control", "method": "(§2) Total RNA was extracted (see Chomzynski and Sacchi, supra) and MRNA prepared as previously described (see Aviv and Leder, supra). Samples of MRNA (10-20 μg) were electrophoresed, and the RNA transferred to a nylon membrane (Magna Graph, MSI, Westborough, Mass.) as previously described (see Ognjanovic et al., supra). The cDNA probes were labeled using the Random Primed DNA labeling kit and following the manufacturer's instructions (Invitrogen, Carlsbad, Calif.). The filters were hybridized at 68° C. for 1 h using Express Hyb solution (Clontech, Palo Alto, Calif., USA). A final wash stringency of 0.1×SSC, 0.1% SDS was performed at 50° C. Filters were deprobed in 0.5% SDS for 10 min at 100° C. and re-hybridized sequentially with cDNA probes to PBEF, IL-6 and IL-8 and finally with a human glyceraldehyde-3 phosphate dehydrogenase (G3PDH) cDNA probe (Clontech), as an internal standard. The Northern blot was quantitated with a Phospholmager (Amersham Pharmacia Biotech, Piscataway, N.Y.), using the G3PDH value for each sample to standardize sample loading. Results were expressed as a ratio to G3PDH. Statistical analysis was performed using the Tukey-Kramer multiple comparison test.\n(§3) The amnion-like epithelial (WISH) cells were obtained from American Type Culture Collection (ATCC# CCL-25) (ATCC, Manassas, Va.). WISH cells were cultured in Dulbecco's Modified Eagle Medium:Ham F-12 (DMEM:F12) (1:1) supplemented with 10% fetal bovine serum (FBS) (Life Technologies, Grand Island, N.Y.), penicillin (50 U/ml)-streptomycin (50 μg/ml) and incubated at 37° C. in 5% CO2/95% air. After reaching confluency, the cells were trypsinized and plated into 6-well culture dishes at a density of 1×10^5 cells in 4 ml media. After 48 h or when the cells reached 80% confluency, the growth medium was replaced with minimal media (0.5% FBS and 0.2% lactalbumin in DMEM:F12) and incubated for 12 h. Treatment of the cells began with addition of rhPBEF prepared in minimal media. The concentration of rhPBEF was determined using the BioRad protein assay and 1, 10 and 100 ng/ml was added to the cells for 4 and 24 h. Treatment was carried out in triplicate and each experiment was performed at least three times on different occasions. Controls received minimal media containing 0.5% bovine serum albumin (15 μl) in phosphate buffer saline (PBS). […]\nIn addition to fetal membrane explants, the amniotic epithelial cell line, WISH cells, were also used to study the effects of PBEF on the expression of IL-6 and IL-8. The expression of the IL-6 and IL-8 genes were quantitated by Northern blotting using total RNA isolated from the cells and calculated as the degree of upregulation (fold) compared to the respective control at each time (see FIGS. 4A-4C). […]"}, "[5]": {"tested_on": "IL-8 protein in WISH cell culture media", "test": "rhPBEF treatment of WISH cells, IL-8 protein in media by ELISA", "conditions": "rhPBEF 10 ng/ml, 4 h", "method": "as §3, with “h.” for “h. Treatment was carried out in triplicate and each experiment was performed at least three times on different occasions. Controls received minimal media containing 0.5% bovine serum albumin (15 μl) in phosphate buffer saline (PBS).”\nThe IL-8 enzyme-linked immunosorbent assay (ELISA) kit was purchased from R&D Systems (Minneapolis, Minn.) and used to determine the IL-8 protein concentration in the culture supernatants following the manufacturer's protocol. […] The basal levels of IL-6 protein in conditioned media of WISH cells were reported to be at the limit of sensitivity of ELISA (see Keelan et al., supra) and could not be considered reliable, therefore the levels of IL-6 protein were not measured."}, "[6]": {"tested_on": "IL-8 gene expression in fetal membrane explants", "test": "rhPBEF treatment of fetal membrane explants, IL-8 gene expression by Northern analysis", "conditions": "rhPBEF 100 ng/ml, 4 h, vs control", "description": "as §1, §2\nEach fetal membrane was cut into several 3×3 cm explants. […]"}},
  "note": "Entries after “also recorded” stand apart in the source; their conditions may differ.",
  "data": [
    {"molecule": "B1", "values": [
      {"measurement": "COX-2 gene expression", "setting": "[1]", "value": "stimulates; also recorded: significantly upregulated"},
      {"measurement": "GRO-γ gene expression", "setting": "[1]", "value": "significantly upregulated"},
      {"measurement": "IL-1β gene expression", "setting": "[1]", "value": "stimulates; also recorded: significantly upregulated"},
      {"measurement": "IL-6 gene expression", "setting": "[1]", "value": "stimulates; also recorded: significantly upregulated"},
      {"measurement": "MIP-1α gene expression", "setting": "[1]", "value": "significantly upregulated"},
      {"measurement": "MIP-1β gene expression", "setting": "[1]", "value": "significantly upregulated"},
      {"measurement": "TNF-α gene expression", "setting": "[1]", "value": "stimulates; also recorded: significantly upregulated"},
      {"measurement": "increase in IL-8 gene expression", "setting": "[2]", "value": "absent"},
      {"measurement": "upregulation of IL-6 gene expression", "setting": "[3]", "value": 40, "unit": "%"},
      {"measurement": "increase in IL-6 gene expression", "setting": "[4]; rhPBEF 1 ng/ml", "value": 15, "unit": "%"},
      {"measurement": "increase in IL-6 gene expression", "setting": "[4]; rhPBEF 10 ng/ml", "value": 29, "unit": "%"},
      {"measurement": "increase in IL-6 gene expression", "setting": "[4]; rhPBEF 100 ng/ml", "value": 44, "unit": "%"},
      {"measurement": "IL-6 gene expression, dose dependence", "setting": "[4]; rhPBEF 1, 10 and 100 ng/ml, 4h", "value": "dose-dependent increase"},
      {"measurement": "increase in secreted IL-8 (ELISA)", "setting": "[5]", "value": 15, "unit": "%"},
      {"measurement": "upregulation of IL-8 gene expression", "setting": "[6]", "value": 120, "unit": "%"},
      {"measurement": "upregulation of IL-8 gene expression", "setting": "[6]; listed as PBEF", "value": 120, "unit": "%"},
      {"measurement": "upregulation of IL-8 gene expression", "setting": "[6]; listed as RhPBEF", "value": "significant (p<0.05) increase"}
    ]}
  ]
}
